Experimental data from the RNAGym collection of RNA variant scans (doi:10.7554/elife.90254).

B1: LINE1-mini (parent)
chain: GGCAGAGCUCAACACAGCGUGGCAAAGUGGCUGUGGCUAGACUGCC

Variants of: B1
Test: self-cleavage, relative activity (ratio to wild type); higher = more cleavage; in vitro, sequencing; the parent is a self-cleaving ribozyme
C8A A24G showed a self-cleavage of 0.38.
G5U A25C showed a self-cleavage of 0.05.
In the case of G1U C42G, the self-cleavage is reported as 0.04.
Variant C15U G40U has a self-cleavage of 0.12.
Variant A11G G22C has a self-cleavage of 0.02.
With G5A G21C the self-cleavage was 0.13.
With G21U U32A the self-cleavage was 0.12.
Variant A6G G35C has a self-cleavage of 0.12.
Work on C10U G27U yielded a self-cleavage of 0.31.
G5A G35A showed a self-cleavage of 0.1.
Variant C3U G40A has a self-cleavage of 0.12.
Variant A11U G22U has a self-cleavage of 0.15.
In the case of A14C A24U, the self-cleavage is reported as 0.07.
In the case of C13U C37G, the self-cleavage is reported as 0.1.
Work on A39C C46A yielded a self-cleavage of 0.13.
With U20C G30A the self-cleavage was 0.45.
Variant G27U G35U has a self-cleavage of 0.24.
In the case of C8G G35U, the self-cleavage is reported as 0.2.
G17U C18G showed a self-cleavage of 0.12.
In the case of A11C G19U, the self-cleavage is reported as 0.04.
In the case of C3G G40C, the self-cleavage is reported as 0.1.
G7C C23G showed a self-cleavage of 0.1.
Work on U32A C46U yielded a self-cleavage of 0.1.
A26U G35C showed a self-cleavage of 0.09.
A6C G35A gave a self-cleavage of 0.08.
In the case of A12G G21U, the self-cleavage is reported as 0.03.
With C10A G36C the self-cleavage was 0.02.
C15A A26G gave a self-cleavage of 0.06.
G27C U38C showed a self-cleavage of 0.29.
In the case of C10A A16G, the self-cleavage is reported as 0.07.
U9G C23G showed a self-cleavage of 0.15.
With C10G C18A the self-cleavage was 0.08.
For G22U G30C, the self-cleavage was 2.28.
For G19U C46G, the self-cleavage was 0.71.
With A26C U32A the self-cleavage was 0.14.
For U38G C45A, the self-cleavage was 0.04.
For A4C C46U, the self-cleavage was 0.18.
In the case of G33C C46U, the self-cleavage is reported as 0.05.
Work on C45U C46A yielded a self-cleavage of 0.63.
C10U G44A gave a self-cleavage of 0.15.
Work on G30C C45U yielded a self-cleavage of 0.88.
For G5C U9G, the self-cleavage was 0.04.
With U9C G21U the self-cleavage was 0.04.
With U28A G40A the self-cleavage was 0.1.
In the case of U28C G35U, the self-cleavage is reported as 0.09.
U34C G36C showed a self-cleavage of 0.08.
Variant C3G U28C has a self-cleavage of 0.16.
Work on C15A C23G yielded a self-cleavage of 0.05.
G22U G29U showed a self-cleavage of 0.72.
C18U C37A gave a self-cleavage of 0.09.
Work on G5C C10G yielded a self-cleavage of 0.02.
C31U U43A gave a self-cleavage of 0.06.
With C15G C42G the self-cleavage was 0.1.
Variant C18U G30U has a self-cleavage of 0.4.
Work on A26C C46A yielded a self-cleavage of 0.83.
For G22A G35C, the self-cleavage was 0.12.
G27A A39U showed a self-cleavage of 0.59.
In the case of A39C C42U, the self-cleavage is reported as 0.05.
A6U U43C gave a self-cleavage of 0.51.
Variant G33U A41U has a self-cleavage of 0.09.
G19A A39U gave a self-cleavage of 1.35.
In the case of A11U, the self-cleavage is reported as 0.15.
Work on G2C G22A yielded a self-cleavage of 0.15.
G7A C13G showed a self-cleavage of 0.26.
C10G A16C showed a self-cleavage of 0.02.
A6C A25G showed a self-cleavage of 0.18.
U20G U34G showed a self-cleavage of 0.14.
Work on G35A C42G yielded a self-cleavage of 0.04.
Work on A11G C46U yielded a self-cleavage of 0.02.
In the case of G21U C42A, the self-cleavage is reported as 0.23.
A11U U28C showed a self-cleavage of 0.22.
C23G G40C gave a self-cleavage of 0.13.
For C18G C23U, the self-cleavage was 0.89.
Variant G7C A24U has a self-cleavage of 0.19.
With G30C A41C the self-cleavage was 0.05.
With A14C G33A the self-cleavage was 0.06.
In the case of A11G C15U, the self-cleavage is reported as 0.03.
Work on G5C G40A yielded a self-cleavage of 0.1.
Work on C3G U43A yielded a self-cleavage of 0.41.
G5A A41U showed a self-cleavage of 0.08.
G7A G22U gave a self-cleavage of 0.14.
Work on G19A G44A yielded a self-cleavage of 0.75.
A4U C46A showed a self-cleavage of 0.16.
For G2A C8U, the self-cleavage was 0.43.
In the case of G33C U43C, the self-cleavage is reported as 0.03.
Variant G17U U32A has a self-cleavage of 0.08.
Variant G19A C31G has a self-cleavage of 0.17.
In the case of G7A G40C, the self-cleavage is reported as 0.1.
In the case of G7A G40A, the self-cleavage is reported as 0.19.
For G1A U34G, the self-cleavage was 0.29.
Work on U32A U43C yielded a self-cleavage of 0.04.
With G5C A26G the self-cleavage was 0.05.
G21U C46A showed a self-cleavage of 1.14.
Variant A11G G27U has a self-cleavage of 0.03.
With A26U C45A the self-cleavage was 1.95.
In the case of A14G G17A, the self-cleavage is reported as 0.17.
In the case of A25G G36U, the self-cleavage is reported as 0.05.
With A24U G30U the self-cleavage was 1.46.
Variant U9C G19A has a self-cleavage of 0.04.
In the case of G1A A39U, the self-cleavage is reported as 1.46.
In the case of U38G U43C, the self-cleavage is reported as 0.05.
In the case of A26G U38A, the self-cleavage is reported as 0.52.
In the case of A39C G44C, the self-cleavage is reported as 0.04.
With G35A G44U the self-cleavage was 0.09.
G40A C45A showed a self-cleavage of 0.12.
C8G C31U gave a self-cleavage of 0.11.
In the case of C10U G36C, the self-cleavage is reported as 0.05.
For C10U G36A, the self-cleavage was 0.08.
Variant A25C C45A has a self-cleavage of 0.23.
In the case of A4U G30U, the self-cleavage is reported as 0.22.
For U20A G21A, the self-cleavage was 0.76.
Variant A26U G30U has a self-cleavage of 1.25.
In the case of G7U C37U, the self-cleavage is reported as 0.03.
C8A U28G gave a self-cleavage of 0.08.
Work on G1C G19A yielded a self-cleavage of 0.11.
For A14G G40A, the self-cleavage was 0.1.
G21U A25U showed a self-cleavage of 1.88.
With G5A U28G the self-cleavage was 0.2.
C13G A16G gave a self-cleavage of 0.01.
With C10A G19C the self-cleavage was 0.05.
For A24U U28C, the self-cleavage was 0.69.
For G2C A14C, the self-cleavage was 0.06.
In the case of G1A A41C, the self-cleavage is reported as 0.09.
Variant A4G U38A has a self-cleavage of 0.23.
A4C C18A gave a self-cleavage of 0.07.
Variant A12C G40U has a self-cleavage of 0.03.
For A26U G44A, the self-cleavage was 0.64.
Work on C15U U28G yielded a self-cleavage of 0.31.
A25U G36U gave a self-cleavage of 0.07.
C8U G30U showed a self-cleavage of 0.29.
C8G C42U showed a self-cleavage of 0.09.
For C15U G44U, the self-cleavage was 0.09.
In the case of C31A G36C, the self-cleavage is reported as 0.13.
With U20C A25G the self-cleavage was 0.53.
Variant C8U G22A has a self-cleavage of 0.15.
With A25U U32G the self-cleavage was 0.3.
Work on A6C G19A yielded a self-cleavage of 1.02.
Variant G27U U38G has a self-cleavage of 0.03.
Work on G17A G40U yielded a self-cleavage of 0.07.
A6C G40A gave a self-cleavage of 0.11.
Work on G1C A14U yielded a self-cleavage of 0.02.
A6G U9C gave a self-cleavage of 0.02.
In the case of C42U C45G, the self-cleavage is reported as 0.09.
Work on C3A G44U yielded a self-cleavage of 2.11.
For C3A G44A, the self-cleavage was 0.91.
For A12C U43C, the self-cleavage was 0.01.
For G35U A41U, the self-cleavage was 0.14.
With G29U G40U the self-cleavage was 0.18.
Work on C3U C23A yielded a self-cleavage of 0.55.
With G5A G27A the self-cleavage was 0.1.
In the case of A4G A41U, the self-cleavage is reported as 0.3.
With C13A C37U the self-cleavage was 0.34.
Variant G33C A41G has a self-cleavage of 0.04.
For U28C G40A, the self-cleavage was 0.09.
A6C A41C gave a self-cleavage of 0.04.
Work on C13G U34A yielded a self-cleavage of 0.04.
C3U G33C gave a self-cleavage of 0.07.
C31A C37A gave a self-cleavage of 0.08.
With U43C C46A the self-cleavage was 0.11.
With C13A G21C the self-cleavage was 0.14.
In the case of A4G A12G, the self-cleavage is reported as 0.05.
U28G C31G showed a self-cleavage of 0.28.
Work on G17C A26U yielded a self-cleavage of 1.41.
In the case of G33A U34A, the self-cleavage is reported as 0.09.
For C13U C18G, the self-cleavage was 0.05.
In the case of G21U A26G, the self-cleavage is reported as 1.29.
Work on G7U G35A yielded a self-cleavage of 0.1.
